The DeepSol protein solubility set

test: soluble on expression in E. coli; label from the status in PepcDB or PDB records

Soluble on expression in E. coli, not soluble:
MGSDKIHHHHHHMKVRFLQISDLHFQFQNYDTIVMRDKLLDFIEVLRRESDFDFLLLTGDIAHKGDVYNEDVKEYLNGIIKSMGLSKNNVHLVPGNHDISRDMTRTLLIDSIMKSPNPSEMLDKLDQKATNILVEGQRKFFDFYEDFMGVKYPEEDLHFLYQSEKYNVLSINTCLLSDKKGEEGTLLTAQMKLYKAIRKMNKEKNKGKVLNIAIGHHTLGCIESSERESIKAHFDDYFIDLYLAGHVHDSSFNITANTNENPFLELVSGAIIKDEYATPEFISVDVNLDNGETEVTYYIWNTEYKYWSKNNQGGRRLQEGKLNYKINRLESLIEKEIEDNDDKIDEDEFKSFIIDFHEYRESYKTFTSNFDNQIGLDKKFYDMKSGETFKRKFDSYSEYFGVINHIMDSTSYVSADKKELIAETIVDKYLEFHNQYNNGDEIFVKIVNEIYLECHSVLPYSKALTKKYIKILTCWCIYECEIFNDNKRSVKND
MGSDKIHHHHHHMKVVIVGNGPGGVELAKQLSEEHEVTIVERETVPYYTKPMLSHYVAGLAEEKSLFPYPIDWYEKKGIKLLLGTTAKRIDAEKKVLETDRGTLEYDVLVLATGAKPRTLKIPGWERMYTLRTIEDAKRLKGAVEREKDLLIIGGGFIGLEIAGNLSKQGIKVKVVEKMTRLMGLDEELTERIKGELEKHGVEFYLGRDVERIENDVLVTDKEEIPARVILCSIGIVPEVSLAKESGLDVNRGILVDKTFRTSKPDIYAIGDCAEHEGIICGTAKAAMAHAKVLANTLKGIPDEYDFHFRSSYFKFGDFPIAIVGELTDRGEWIDSETKSFYRDEKIVGVVVLSDVRKAREWEERLRSTR
MGSDKIHHHHHHMKYDIPTMTAEAVSLLKSLISIPSISREETQAADFLQNYIEAEGMQTGRKGNNVWCLSPMFDLKKPTILLNSHIDTVKPVNGWRKDPFTPREENGKLYGLGSNDAGASVVSLLQVFLQLCRTSQNYNLIYLASCEEEVSGKEGIESVLPGLPPVSFAIVGEPTEMQPAIAEKGLMVLDVTATGKAGHAARDEGDNAIYKVLNDIAWFRDYRFEKESPLLGPVKMSVTVINAGTQHNVVPDKCTFVVDIRSNELYSNEDLFAEIRKHIACDAKARSFRLNSSRIDEKHPFVQKAVKMGRIPFGSPTLSDQALMSFASVKIGPGRSSRSHTAEEYIMLKEIEEAIGIYLDLLDGLKL
MGSDKIHHHHHHMKYYYKDGEGFNSKGVFIRVGSTKRVASFDEIQRMIRSHSSNDFELISIDRDDLTFEYIESRFKEKGIKFDVYALSLIGKDNKYNNAALLLSDQNPTISKFAVFQGTDVSVFLDKKEFTGSILKQLDEILYFASLSNRKRITISGKPGREEYLDIPKRALREAIVNCYCHRDYTLSGDVKIEFYDDRVQIFSPGSLPDGLTLENIKMGMVAKRNKIIVNTLDKIDVIENYASGVRRIFEDYADFTKQPEYYISNNGVIVTLFNRNYEAQNEAQNEAQILKLDNQKRIEKILELIKENKNITRSNLKDILGVSKSTIERDISKLKEEDKLEYIGSSRNGYWKVKNN
MGSDKIHHHHHHMLAGFAAAKAPEIDPALVDTLVAQIMQQADRHAEQSQKPDGQAIRNDAVRRLQTLEVLKNRALKEGLDKDKDVQNRFKIAEASFYAEEYVRFLERSETVSESALRQFYERQIRMIKLQQVSFATEEEARQAQQLLLKGLSFEGLMKRYPNDEQAFDGFIMAQQLPEPLASQFAAMNRGDVTRDPVKLGERYYLFKLSEVGKNPDAQPFELVRNQLEQGLRQEKARLKIDAILEENGVKP
MGSDKIHHHHHHMLAQVPNTISLQQELTPLLQHEWLPHINQRDYHSGSQGGWDVLALRCAEEYHAAHPILQAFSISAANEWDNLPALESSPTLLDFIQSLACPVKSVRFMRLHAGAEIKPHRDQGLSLEQGEARLHLPLQTHDQLYFYVNDQRVPMQAGELWYINADQSHWVANKGSSARINLVIDCKVNSWLRELIHGAKIKA
MGSDKIHHHHHHMLDCHEDTLVILAKNIAVEMHYHHAIQLVLSLDKPYDAVLDHQPIESVKGFLIDSDIPHACQSADSTVLVISVDASSSKGRLLKSHLLKRTFILIDELFSAEAIDEFLNFYWRCCDTSQHEFDPLYFLHKLSHEQRNITPFDARLLIAIDFINQDISQIIKVIDIARHISLSESRLRHLFTEQVGIPLTKYVLWVRMKVALREMLKPGVTLSDAAHQAGFTDHAHFTRTFRRMFGVSPSLLLKYGQFLQIFGL
MGSDKIHHHHHHMLDHLCVNMLSSCPRCASSSGNRASRRYPMRINADFTRRAAVHFDQTDWVPSPAPGVERKMLDRIGAEVARATTIVRFAPGSAFSAHTHDGGEEYLVLDGVFQDELGDFPVGSYVRNPPTSSHTPATEPGATILVKLHQFDPADRTEVRRSINGKSDETLFSDSHEEVRLESWAAGAQVTRDLPGGIEVFVLEGGFQEGGETFSRWDWLRLPPGARLDLTAGAEGARVWVKSGHLAAMV
MGSDKIHHHHHHMLDRKLLESLGGWQGYGVERVEWPEDPGRTLSIYLKPTAKVMLCEQCGARCRQVHETTVRRVRDLPLFEYRVVLHVPRRRLWCEQCGGPRLERLAWLGRYQRVTDRLAQACSQLLQSSNVQAVARFFELGWHTVKTLDKARLRASVREPDWSKIEYLAMDEFALHKGHRYATVVVDPIGRQVLWIGPGRSRETARAFFEQLPPGAAQRIKAVAIDMTTAYELEIQAHSPQAEIVYDLFHVVAKYGREVIDRVRVDQANQLRQDRPARRIIKSSRWLLLRNRDNLDRQQAVRLDELLQANQPLLTVYVLRDELKRLWFYQRPAWARQAWNHWYEQAEQSGIAALNTFAQRLKGYLHGILARCRHPLNTSIVEGINNTIKVIKRRAYGYRDQEYFFLKIRAAFPGNAR
MGSDKIHHHHHHMLEELRTLVLFAEEGSIQNVARRLPLTQPAVTRQMQRLEDMLATTLLDRRQKPPRLTAAGLEVLARAKDILASVEALKAFAADAEPQGVLRVGLAHGLSDASIAGAIAGAAAAFPKISLRLKTGWSAELIEQFERGQLDMAIVLRPADHQGPDALGTERLCIIAQAGAHLTDARVPMPWVLSPEPCDARQTLLSSLGGERHPLIVAAEIQDPAMQMEWVRRGHGLGLMPLRLAARGLPDGLALVDLEDVDLSLQVVALRSPHLNRLAKAVEAIAQTVGEAIKIEA
MGSDKIHHHHHHMLEFTKRSLMNKYNINERVLELYERALNDVEKEFKYYDEIREYNQLKVLKAFQEERISESHFTNSSGYGYNDIGRDSLDRVYANIFNTESAFVRPHFVNGTHAIGAALFGNLRPNDTMMSICGMPYDTLHDIIGMDDSKKVGSLREYGVKYKMVDLKDGKVDINTVKEELKKDDSIKLIHIQRSTGYGWRKSLRIAEIAEIIKSIREVNENVIVFVDNCYGEFVEEKEPTDVGADIIAGSLIKNIGGGIATTGGYIAGKEEYVTQATFRVTVPGIGGECGSTFGVMRSLYEGLFMAPHVTIEAVKGAVFCARIMELAGFDVLPKYNDKRTDIIQAIKFNDEKKLIDFIKGIQTASPVDSFVQCEAWDMPGYEDKVIMAAGTFVQGASIELSADAPIREPYIGYLQGGLTFDHAKLGVLIALSKLIM
MGSDKIHHHHHHMLEGEFLSVAELKDLTLSLASKFLNNLLASKLLVSKQLFIDRKKELGLLEERLKSGKAQFIVIYGRRRVGKTALILEFLRRHGGLYLLARETSEIENLERFSLRLAEYFNDSFLKKNPLRSLDAFFEYLSTKAEKPFIIAIDEFPYLVKGNKALPSILQEYWEMKLSKKKIFLIVSGSSVSMTERLLGYKSPLYGRRTAQLKLKPLDFFNAREFLPKYSLEDFVRVYGILGGTPAYLLEFSDEKSLEENLKSYFRVDSLLYGDALFILREELDEPRNYFAIMEAIARGNTTLGEIVNETGLERATVGKYLSVLIDLDLVRREVPITASRKSRKGRYYIADNYFAFWFRYVYPNADLIESGNGELLVDTVMDDIDHYTGEVFEGVAKEFLLRLNKSERLPFRFSRVGRWWYKNEEIDLVALNEREKKVLFIEVKWKDLSKREARGILKDLKRKAKLVGLDEWGKHYGLVAKSVRGKDEIKEEGWLAWDLEDIHRMAF
MGSDKIHHHHHHMLEGKVAVVTGGGQGIGAAIAQLFAENGMKVVIAEIDEEAGVEREEMLRERGLDVTFVKTDVADENSVKNMVRKTVEIYGGVDVLVNNAAVMSVKSIFERPLEEWERVIRVNLTGPYICSRYCAEEMIKRGGGVIINIASTRAFQSEPDTEPYSASKGGLVALTHSLAVSLSRYHIRVVSISPGWIETSEWKKKSLRKKPDLRPIDHEQHPAGRVGNPLDIAHLCVFLADDEKAGFITGTNFIVDGGMTVKMIYEE
MGSDKIHHHHHHMLGLIKKKANTLLGIDISSTSVKLLELSRSGGRYKVEAYAVEPLPPNAVVEKNIVELEGVGQALSRVLVKAKTNLKSAVVAVAGSAVITKTIEMEAGLSEDELENQLKIEADQYIPYPLEEVAIDFEVQGLSARNPERVDVLLAACRKENVEVREAALALAGLTAKVVDVEAYALERSYALLSSQLGADTDQLTVAVVDIGATMTTLSVLHNGRTIYTREQLFGGRQLTEEIQRRYGLSVEEAGLAKKQGGLPDDYDSEVLRPFKDAVVQQVSRSLQFFFAAGQFNDVDYIVLAGGTASIQDLDRLIQQKIGTPTLVANPFADMALNGKVNAGALASDAPALMIACGLALRSFD
MGSDKIHHHHHHMLHGTTTKAADALDITQPAVSKILLQLTNKAGFPLFRNHRQRLIPTPEAHMLYAEVRRLFETVRGISQIAKEIRELRSGRLNISALPAFGSTLMPSIIASFTKQYPDVAITLDIRSSSTIIQRAGRNQLDIGVASEVNDETPSVVRRALIATPPVCVMPKGHPLSKLSVVQPDDFDGLNFVSLGVGDPMRKQLDELCEQRGVNRSLKVEAALSHSCINLVANGVGVTVVDRLSAWMAKDLPIEIRDFQPHLDINLSVYRPWGTIASSVADTFIEHLIQSTREYMNVVDRGIKALSEQ
MGSDKIHHHHHHMLIRLGYEIAIECAEATPVISLLEIHKDRQADIKRQTRVLTSPSVPTKLYHDLHGNGCRRFTAPAGTFRILYDAVIEDSGETDEVNTLAREVPVAELPDEVLFYLLGSRYCETDHLSSLAWQLFGHLPSGWARVQAIVDYVHNRLSFGYGYARSTRTAAQAHEERVGVCRDFAHLAITLCRCMNIPARYVNGYLGDIGVPIDPAPMDFSAWMEVFLDGKWYTFDPRHNQPRTGRIVIARGRDATDVPLLHSFGPHRLCLFKVWTYEQEGRSFNPPHRGIDRTVSAQMLA
MGSDKIHHHHHHMLKDFAKLETFLIVVRERSFSKASAKLGISQPAVTQQIKYIEEYLDTKIIERKKNGVKLTKDGEKLLTIALRLERAIVTAEKETMKIIKKDFSFNIGASFTIGNYILPNCLGNIKEMIKNDVFVKIDSSDNIIEALIEKKIDLALIESPIFKDNIVYREWVEDEFVLFSNSPLPKTVKKEDLLTFSWICREWGSNTRRIINETLDDVGIDCTTFDIKGVVSSSTGVKHTVLKSPKFPEESPKPTVAILSKYVVQDDLVNNSLHESKIRGCKLKRKLYLAYLKDRKNDAFVDTVSSCLMCNKNLG
MGSDKIHHHHHHMLKDLVREKLLTIMNTKAYTQFNPEQLLQLENEMKIYMKSGDSALTEGNYFFLMEMLFYVLVYRNQDVDAQVVYNTLRDRLGENSYKMVIMKATLLQINGNDKGAIEYLENLLNDDLEYETDFVTYVSIAKKLIAIKTTSKNLSQESVLKEVVALTDKFPLDAELWWYASEIYFEMGQFEKACYCLEQVLCITPFNYACFGRLSETLYYEALRSKKQTKTELLEKALKNALRSVELSELYLKGWALVNIISRELGRNKQNDLIKLSASKLKEISAKSNNKDKITAELILNKI
